Some results are limits rather than exact numbers.

The values that follow come from patent US8022178B2, “Modified self-assembling peptides” (Massachusetts Institute of Technology, priority 2006, dated 2011).

A short description of data set [1]: Isoelectric plot and rheological data when 0.1 N NaOH is added (pH of gel formation). As to conditions: 1% solution, 0.1 N NaOH solution added. It counts as physicochemical. From the text: At the point of pH 3.6, the viscous solution become gel and has a higher G′ (stiffness), G″ (viscosity) value. When the pH is increased, the gel breaks into small pieces and it becomes a solution with precipitated peptides. At lower pH, the peptide forms fibers and the fibers make the solution viscous. When the pH becomes higher, and approaches the pI value, the peptide fibers lose their charge and aggregate to form gel. The same gel formation happens when the peptide charge is screened by salts in a salt-containing solution (e.g., a solution containing a gellation agent or an iso-osmotic solute). Once the gel is formed, the fiber structure is broken into pieces to form a precipitate particle.
(§1) A comparison of the pH dependent property of 1% Ac(RADA)4GGFHRRIKA CONH2 (SEQ ID NO. 6) solution (Code: FHR), self assembling peptide sequence was compared with the heparin-binding motif. FIG. 12 depicts the isoelectric plot and corresponding rheological data when 0.1 N NaOH solution is added to FHR solution to adjust pH. The net charge of the peptide molecule is kept ≧2 when pH<10. Until at point of pH 5.7, the solution keeps viscous state. This movement of pH point where the peptide solution become gel is controlled by the charge induced by the additional motif to the self-assembling peptide. The induced charge prevents the peptide to aggregate to form the gel. Thus, the cell and the peptide solution can be mixed near neutral pH. After complete mixing, the gel formation can be made by adding salt containing solution (e.g., a solution containing a gellation agent or an iso-osmotic solute).
FIG. 18 depicts the isoelectric plot and Rheological data of PFS 1% solution when 0.1 N NaOH solution is added. 1% Ac(RADA)4GGSKPPGTSS-CONH2 solution (Code: SKP, peptide sequence: SEQ ID NO. 7) is a hydrogel composed of peptides with a self-assembling sequence and positively-charged functional motif. Although the pI value of the peptide is 9.74 and it keeps positive charge at near pH 7 range, the gel is formed at the point of pH 4.5. […]

A short description of data set [2]: pI and charge of the self-assembling peptide. It is filed as physicochemical. As to the method: as §1
FIG. 18 depicts the isoelectric plot and Rheological data of PFS 1% solution when 0.1 N NaOH solution is added. 1% Ac(RADA)4GGSKPPGTSS-CONH2 solution (Code: SKP, peptide sequence: SEQ ID NO. 7) is a hydrogel composed of peptides with a self-assembling sequence and positively-charged functional motif. Although the pI value of the peptide is 9.74 and it keeps positive charge at near pH 7 range, the gel is formed at the point of pH 4.5. This is because the charge of the molecule around pH 7 range is +1 and smaller than the charge of Ac(RADA)4GGFHRRIKA CONH2 (FHR) (bigger than 3). The charge of the whole peptide should be larger than 2 when the cell is mixed. This pH should be somewhere in 6-8 in order to minimize the damage to the cells. As this sequence is heparin-binding motif, the fiber can attach to the heparin molecule which is abundant at cell surface. This heparin-binding motif provides a specific anchor to the cell. As described in Example 1, this binding synergistically works with the other binding motif (e.g., RGD) to induce biological stimuli for cell proliferation and differentiation. This effect is not limited to the sequences previously describe, but the other motifs, including -XBBXBX- and -XBBBXXBX- sequences. […]

The next data set concerns the target bFGF (Homo sapiens, UniProt P09038). Put plainly: bFGF retention in peptide matrix (ELISA). Conditions: bFGF 175 ng/insert loaded after gelation; during PBS washing and culturing; FIG. 19. As to the method: The effect of protein retention and delivery using the self-assembling peptide were studied (Table 11). bFGF was used as a model protein. The retention of bFGF in different peptide matrix in different charge condition was measured by ELISA after washing by PBS. After washing out unbound bFGF, the effect of protein retention to self-assembling peptide matrix were evaluated the using cell culturing of HUVEC (human umbilical vein endothelial cells).
The peptide solutions provided in Table 12 were loaded in the culture inserts (10 mm diameter, Millicell-CM, Millipore) and gels were formed using PBS. After gelation, bFGF solution in PBS was added inside and outside and plated for overnight. bFGF was loaded at 175 ng/insert. After loading bFGF, the PBS inside and outside the inserts were exchanged three times (2 hours, 9 hours and 12 hours) to remove unbound bFGF (Washing). After the washing, the PBS was exchanged to the cell culture medium (EGM-2-MV, Camblex) without attached growth factor (bFGF, VEGF and EGF) and placed more than a day (such that the fluid contained in the gel is exchanged from PBS to cell culture medium), then HUVEC (human umbilical vein endothelial cells) were plated at 7.5×10^4 cells on the inserts and cultured for three days.
Cell culturing using cell culture medium (EGM-2-MV) was used without attached growth factor on peptide matrix as negative control. Cell culturing using cell culture medium (EGM-2-MV) was used with attached growth factor on peptide matrix without loading growth factor as positive control. The bFGF concentration in washing buffer (PBS) and cell culture medium (EGM-2-MV) was measured using ELISA. The washing buffer and cell culture medium were exchanged at each measurement period (2 hours, 9 hours and 12 hours for washing, and at the cell seeding (D0), Day 1 (D 1), Day 2 (D2) and Day 3 (D3)). Growth factor retention rate was calculated by accumulating the amount of measured bFGF.
(In general: An ELISA detects its analyte on a solid surface through an enzyme-linked reagent.)

The test system of data set [3] is HUVEC (human umbilical vein endothelial cells). The data set is described as follows: HUVEC cultured 2-dimensionally on hydrogels: cell attachment and morphology. It counts as cell-based. Conditions: HUVEC cultured on hydrogels. The arrangement: key to Capillary like morphology: weak: +; medium: ++; strong: +++; very strong: ++++. As to the method:
The effect of functional modified peptide matrix to HUVEC (human umbilical vein endothelial cells) was evaluated by culturing cells 2-dimensionally on the gel.
The peptide solutions shown in Table 19 were loaded in the culture inserts (10 mm diameter, Millicell-CM, Millipore) and gels were formed using cell culture medium (EGM-2-MV, Camblex). Collagen-1 and Matrigel were used as control matrices. HUVEC (human umbilical vein endothelial cells) were plated at 8×10^4 cells on the inserts and cultured up to 7 Days.

Sequence of bFGF (P09038 143-288, species assumed): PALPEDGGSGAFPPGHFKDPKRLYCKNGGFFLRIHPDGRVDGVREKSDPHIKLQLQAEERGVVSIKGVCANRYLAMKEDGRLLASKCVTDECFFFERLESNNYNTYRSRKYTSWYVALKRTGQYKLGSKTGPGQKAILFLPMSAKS

Regarding Ac(RADA)4-CONH2, the “pH at which the viscous peptide solution becomes gel” value in data set [1] is given as 3.6. Further, in data set [2], the charge result was “neutral” and the pI is listed as 6.1. In the data set with bFGF, the “bFGF (growth factor) retention rate” value is recorded as “high in the order of KFQ-2P, FHR-2P, RAD-2P then DGR-2P”. Moreover, the Cell attachment result in data set [3] is “+ (+: Weak(<20%))”.
Consider “Ac(RADA)4GGFHRRIKA-CONH2 (Ac-RADARADARADARADAGGFHRRIKA-NH2) [FHR = 1% solution; FHR-2P = 2% solution]”, for which the “pH at which the viscous peptide solution becomes gel” value in data set [1] turned out to be 5.7. In addition, in data set [2], the charge result is on record as “positively charged” and the pI is given as 11.32,. The “charge of the molecule around pH 7 range” value in data set [2] (around pH 7) is listed as above 3. Also, the “net charge of the peptide molecule” value in data set [2] (when pH<10) was at least 2. Further, the “bFGF (growth factor) retention rate” value with bFGF is given as “high in the order of KFQ-2P, FHR-2P, RAD-2P then DGR-2P”. In data set [3], the Capillary like morphology result is “+” and the Cell attachment entry is on record as “++ (++: 20-50%)”.
